These are literature values, as cited in article PMC4221657.

Broadly, the Kd is the constant that tells how readily two partners part at equilibrium.

Data set [1] has as its target VPAC2 receptor (Homo sapiens) (UniProt P41587).
For data set [2], the target named is PAC1 receptor (Homo sapiens) (UniProt P41586).
In data set [3] the target is VPAC1 receptor (Homo sapiens) (UniProt P32241).
Sequence of UniProt P32241 (P32241 31-457): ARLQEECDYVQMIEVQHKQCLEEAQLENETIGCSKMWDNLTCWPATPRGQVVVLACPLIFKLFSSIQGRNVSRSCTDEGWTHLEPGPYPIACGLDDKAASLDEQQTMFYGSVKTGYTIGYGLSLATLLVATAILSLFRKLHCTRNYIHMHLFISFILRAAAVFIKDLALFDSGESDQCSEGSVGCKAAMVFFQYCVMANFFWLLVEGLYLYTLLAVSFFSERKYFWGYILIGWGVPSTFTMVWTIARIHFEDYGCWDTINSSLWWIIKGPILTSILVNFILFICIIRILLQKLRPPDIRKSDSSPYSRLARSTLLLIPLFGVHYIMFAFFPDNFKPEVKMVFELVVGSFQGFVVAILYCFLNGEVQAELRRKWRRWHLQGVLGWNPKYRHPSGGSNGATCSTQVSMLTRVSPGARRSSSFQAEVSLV

Sequence of UniProt P41587 (P41587 24-438): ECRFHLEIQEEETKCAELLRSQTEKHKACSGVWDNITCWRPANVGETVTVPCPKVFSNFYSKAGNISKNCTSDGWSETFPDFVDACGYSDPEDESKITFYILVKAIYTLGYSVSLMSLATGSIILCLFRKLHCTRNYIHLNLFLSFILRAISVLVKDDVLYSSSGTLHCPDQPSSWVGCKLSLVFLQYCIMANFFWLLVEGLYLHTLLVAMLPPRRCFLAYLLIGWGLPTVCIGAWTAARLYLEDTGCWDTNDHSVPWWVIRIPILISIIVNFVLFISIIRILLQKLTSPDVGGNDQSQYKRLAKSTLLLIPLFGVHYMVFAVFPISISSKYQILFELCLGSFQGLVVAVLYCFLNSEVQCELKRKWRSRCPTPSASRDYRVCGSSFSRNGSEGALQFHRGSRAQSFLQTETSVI
Sequence of UniProt P41586 (P41586 21-468): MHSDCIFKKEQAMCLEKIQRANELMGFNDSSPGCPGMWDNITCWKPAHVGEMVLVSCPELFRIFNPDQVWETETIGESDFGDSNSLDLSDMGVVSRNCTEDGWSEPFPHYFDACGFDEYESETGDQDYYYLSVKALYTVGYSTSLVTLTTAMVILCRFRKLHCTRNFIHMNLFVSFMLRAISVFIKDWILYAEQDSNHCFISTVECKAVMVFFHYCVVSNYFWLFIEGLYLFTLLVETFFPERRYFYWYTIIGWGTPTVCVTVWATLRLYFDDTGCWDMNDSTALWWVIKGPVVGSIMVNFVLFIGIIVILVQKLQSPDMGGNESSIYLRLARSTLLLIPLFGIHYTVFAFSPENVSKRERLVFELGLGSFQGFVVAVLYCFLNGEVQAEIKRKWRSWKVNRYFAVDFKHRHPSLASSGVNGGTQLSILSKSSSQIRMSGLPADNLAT

Regarding PACAP38 (from UniProt P18509), the dissociation constant Kd in data set [1] is 1 nM; in data set [2], 0.5 nM; in data set [3], 1 nM.
